Patent publication US20040253631

Columns and labels:
[1] = target: Cre recombinase (bacteriophage P1) (UniProt P06956); test: cell_activity; conditions: background 140 without Cre; 37 C; 19/24 correct product
[2] = target: T1, Lambda integrase (Int) (bacteriophage lambda) (UniProt P03700); test: cell_activity; conditions: Xis, IHF
T1 sequence: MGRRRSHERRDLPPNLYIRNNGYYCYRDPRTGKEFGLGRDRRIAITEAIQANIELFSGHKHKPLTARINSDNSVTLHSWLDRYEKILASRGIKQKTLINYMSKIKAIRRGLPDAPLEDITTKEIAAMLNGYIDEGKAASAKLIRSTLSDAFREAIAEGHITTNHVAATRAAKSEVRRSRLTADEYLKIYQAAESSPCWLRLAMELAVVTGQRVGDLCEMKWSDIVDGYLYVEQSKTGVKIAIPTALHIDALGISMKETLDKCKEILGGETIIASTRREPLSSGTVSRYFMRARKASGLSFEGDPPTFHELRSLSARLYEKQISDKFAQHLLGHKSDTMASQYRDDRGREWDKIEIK

Chain of UniProt P06956 (P06956 whole entry): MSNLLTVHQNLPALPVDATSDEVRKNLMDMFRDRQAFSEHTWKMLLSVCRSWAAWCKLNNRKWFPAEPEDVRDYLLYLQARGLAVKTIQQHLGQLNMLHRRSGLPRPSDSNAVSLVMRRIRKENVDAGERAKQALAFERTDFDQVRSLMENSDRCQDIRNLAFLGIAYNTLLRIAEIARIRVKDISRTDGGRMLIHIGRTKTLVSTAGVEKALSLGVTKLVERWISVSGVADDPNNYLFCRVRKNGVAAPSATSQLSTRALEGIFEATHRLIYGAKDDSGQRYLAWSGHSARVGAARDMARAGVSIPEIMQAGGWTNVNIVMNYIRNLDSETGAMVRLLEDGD

| Substance | activity [1] | activity ([2]; partner attR'1 (N5), Cre, background 1) | activity ([2]; partner attR'2 (N6), Cre) | activity ([2]; partner attR'wt, Cre (loxP for second recombination), background 1) |
| --- | --- | --- | --- | --- |
| loxP / loxP 511 plasmids | 760 colonies | – | – | – |
| attL wt | – | 4 colonies | 0 colonies | 147 colonies |
